Laboratory results published in patent publication US7977459 (TOUDAI TLO, dated 2011).
“And” between values parts separate entries of the source, which are not always exact repeats. Equal entries are not always repeated. Each block holds one binder with its values, some of them ahead of it.

Key:
[1] = target: T1, mouse AdipoR1 (mouse adiponectin receptor 1) (mouse, UniProt Q91VH1 1-375); experiment: Scatchard analysis of [125I] gAd binding to C2C12 myocytes; high affinity sites, tied to AdipoR1 because AdipoR1 siRNA abrogated them
T1 construct: also called mAdipoR1
T1 sequence: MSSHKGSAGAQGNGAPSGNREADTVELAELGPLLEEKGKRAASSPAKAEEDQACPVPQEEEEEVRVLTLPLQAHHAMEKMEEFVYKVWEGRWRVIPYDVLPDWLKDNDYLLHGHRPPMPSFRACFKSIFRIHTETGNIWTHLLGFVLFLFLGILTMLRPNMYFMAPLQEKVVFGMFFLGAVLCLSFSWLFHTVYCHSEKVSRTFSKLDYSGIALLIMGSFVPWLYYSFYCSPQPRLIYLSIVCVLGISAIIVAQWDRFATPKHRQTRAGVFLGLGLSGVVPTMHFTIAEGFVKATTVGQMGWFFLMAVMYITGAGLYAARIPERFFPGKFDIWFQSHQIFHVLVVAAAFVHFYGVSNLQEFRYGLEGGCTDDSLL

[2] = target: T2, mouse AdipoR2 (mouse adiponectin receptor 2) (mouse, UniProt Q8BQS5 76-386); experiment: Scatchard analysis of [125I] gAd binding to C2C12 myocytes; intermediate affinity sites, tied to AdipoR2 because AdipoR2 siRNA abrogated them
T2 construct: also called mAdipoR2
T2 sequence: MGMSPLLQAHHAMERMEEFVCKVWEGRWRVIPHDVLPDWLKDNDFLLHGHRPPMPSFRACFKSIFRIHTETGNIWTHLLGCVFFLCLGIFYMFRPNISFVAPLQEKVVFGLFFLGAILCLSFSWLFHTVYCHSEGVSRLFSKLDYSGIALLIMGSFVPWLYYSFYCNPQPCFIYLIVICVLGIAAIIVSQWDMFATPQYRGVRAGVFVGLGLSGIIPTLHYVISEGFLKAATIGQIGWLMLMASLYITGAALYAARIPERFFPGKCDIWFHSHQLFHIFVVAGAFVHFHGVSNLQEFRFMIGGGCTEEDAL

[3] = target: T2, mouse AdipoR2 (mouse adiponectin …); experiment: Scatchard analysis of [125I] Ad binding to C2C12 myocytes; intermediate affinity sites, tied to AdipoR2 because AdipoR2 siRNA abrogated them

Kd [1]: ~0.06 µg/mL and ~1.14 nM
Kd [2]: ~0.8 µg/mL and ~14.4 nM
B1: adiponectin consisting solely of the globular domain (globular Adipo) (ligand, mouse, UniProt Q60994 104-247, looked up)
chain: KGEPGEAAYVYRSAFSVGLETRVTVPNVPIRFTKIFYNQQNHYDGSTGKFYCNIPGLYYFSYHITVYMKDVKVSLFKKDKAVLFTYDQYQEKNVDQASGSVLLHLEVGDQVWLQVYGDGDHNGLYADNVNDSTFTGFLLYHDTN
modifications: 125I-labeled at Tyr in the radioligand binding assay; biotinylated with NHS-LC-Biotin or conjugated with FITC in the FACS experiments
notes: domain: globular domain; also called gAd; globular adiponectin

Kd [3]: ~6.7 µg/mL and ~49.1 nM
B2: full-length adiponectin (full-length Adipo) (ligand, mouse, UniProt Q60994 18-247, looked up)
chain: EDDVTTTEELAPALVPPPKGTCAGWMAGIPGHPGHNGTPGRDGRDGTPGEKGEKGDAGLLGPKGETGDVGMTGAEGPRGFPGTPGRKGEPGEAAYVYRSAFSVGLETRVTVPNVPIRFTKIFYNQQNHYDGSTGKFYCNIPGLYYFSYHITVYMKDVKVSLFKKDKAVLFTYDQYQEKNVDQASGSVLLHLEVGDQVWLQVYGDGDHNGLYADNVNDSTFTGFLLYHDTN
modifications: 125I-labeled at Tyr in the radioligand binding assay
notes: also called [125I] full-length Adipo
